Residue numbers refer to the chain shown, from its start.
B1: UCHT1 (antibody, V domains shown)
VH: EVQLQQSGPELVKPGPSMKISCKASGYSFTGYTMNWVKQSHGKNLEWMGLINPYKGVSTYNQKFKDKATLTVDKSSSTAYMELLSLTSEDSAVYYCARSGYYGDSDWYFDVWGQGTTLTVFS
VL: DIQMTQTTSSLSASLGDRVTISCRASQDIRNYLNWYQQKPDGTVKLLIYYTSRLHSGVPSKFSGSGSGTDYSLTISNLEQEDIATYFCQQGNTLPWTFAGGTKLEIKR
notes: A bought antibody (BioLegend); also called parental anti-CD3 antibody
B2: ACE-05-VL2 (other)
heavy: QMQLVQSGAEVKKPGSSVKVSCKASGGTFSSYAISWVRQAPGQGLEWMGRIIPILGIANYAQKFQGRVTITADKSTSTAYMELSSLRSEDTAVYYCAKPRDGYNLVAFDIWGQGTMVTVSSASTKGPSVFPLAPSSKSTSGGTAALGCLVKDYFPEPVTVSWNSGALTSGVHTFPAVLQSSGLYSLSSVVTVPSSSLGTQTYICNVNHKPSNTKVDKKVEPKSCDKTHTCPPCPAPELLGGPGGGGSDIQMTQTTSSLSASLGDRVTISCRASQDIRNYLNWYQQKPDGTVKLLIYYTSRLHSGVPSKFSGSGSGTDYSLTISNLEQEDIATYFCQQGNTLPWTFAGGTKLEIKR
light: QLVLTQPPSVSGAPGQRVTISCTGSSSNIGAGYDVHWYQQLPGAAPKLLIYGDINRPSGVPDRFSGSKSGISASLAITGLQAEDEADYYCQSYDSSLSGGVFGGGTKLTVLRTVAAPSVFIFPPSDEQLKSGTASVVCLLNNFYPREAKVQWKVDNALQSGNSQESVTEQDSKDSTYSLSSTLTLSKADYEKHKVYACEVTHQGLSSPVTKSFNRGEC
B3: ACE-09 (bispecific antibody)
heavy 1: not shown
heavy 2: not shown
light: B2 light with T113S
notes: also called ACE-09-VH + ACE-09-VL + ACE-09-LC
B4: ACE-05 (bispecific antibody)
heavy 1: not shown
heavy 2: not shown
light: B2 light
notes: also called ALiCE; ACE-05-VH + ACE-05-VL + ACE-05-LC

Columns and labels:
CD3 (Sino Biological) = experiment: ELISA on CD3, curve fit
Method: Next day, plate was washed once with 200 μl of PBST, and then a surface blocking was performed at room temperature with 5% skim milk for 1-2 hours. […] Each well was then washed three times with 200 μl of PB ST to remove unbound samples. Horseradish peroxidase (HRP)-conjugated anti-human IgG (Fab specific) antibodies (Sigma, USA) were added to wells at a ratio of 1:1000 for a reaction at room temperature. After three times of washing with 200 ul of PBST, a color reaction of HRP was induced using TMB solution (GEhealthcare, USA) in a volume of 100 μl/well. The reaction was terminated by using a stop solution (2.5 M H₂SO₄, 100 μl/well). A spectrophotometer was used to measure the absorbance at a wavelength of A450 to calculate the binding affinity.

PD-L1 expressed on cells = PD-L1 expressed on cells (UniProt Q9NZQ7 19-290, limits assumed); experiment: cell-based or functional assay
PD-L1 expressed on cells, sequence (Q9NZQ7 19-290 limits assumed): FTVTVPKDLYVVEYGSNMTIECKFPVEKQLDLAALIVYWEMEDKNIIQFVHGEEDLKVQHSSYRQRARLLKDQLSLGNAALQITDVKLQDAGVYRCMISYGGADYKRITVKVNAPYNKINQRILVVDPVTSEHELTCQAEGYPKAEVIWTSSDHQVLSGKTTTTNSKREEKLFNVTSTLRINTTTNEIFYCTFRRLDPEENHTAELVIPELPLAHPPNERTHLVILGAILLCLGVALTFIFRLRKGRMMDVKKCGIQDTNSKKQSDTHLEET

CD3 (Sino Biological), sequence (P07766 23-126, chain 1 of 2): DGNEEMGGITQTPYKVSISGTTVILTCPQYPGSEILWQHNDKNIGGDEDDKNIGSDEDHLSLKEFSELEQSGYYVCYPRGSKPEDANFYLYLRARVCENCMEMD
CD3 (Sino Biological), sequence (P04234 22-105, chain 2 of 2, further chain): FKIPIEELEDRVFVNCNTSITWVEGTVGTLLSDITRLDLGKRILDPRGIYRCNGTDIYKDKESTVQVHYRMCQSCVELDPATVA

| Binder | Bmax (CD3 (Sino Biological)) | EC50 (read off the curve), PD-1/PD-L1 Blockade Bioassay (PD-L1 expressed on cells) |
| --- | --- | --- |
| B1 | 3.67 OD 450 nm | – |
| B2 | – | ~0.09 µg/mL |
| B3 | 4.04 OD 450 nm | – |
| B4 | 3.97 OD 450 nm | – |
